The target in experiment [1] is T1, GST-fused PreS2 antigen (PreS2 epitope of HBV) (Hepatitis B virus, PreS2 epitope …).
T1 construct: also called GST-PreS2; PreS2 of HBV; not shown: GST, N-terminal, kept
T1 chain: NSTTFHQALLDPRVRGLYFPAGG
Briefly: SPR; Biacore 3000, CM5 chip; […], PBS running buffer; […]. The following applies: both partners purified. Background: Surface plasmon resonance follows binding to a sensor surface in real time, without labels.

Experiment [2] addresses T2, GST-fused N1 antigen (N1 epitope of H1N1 influenza virus) (Influenza A virus H1N1, neuraminidase …).
T2 construct: not shown: GST, N-terminal, kept
T2 chain: CRDNWHGSNRPW
Described as above. The following applies: both partners purified.

B1: SP1 scFv (scFv, V domains shown)
VH: EVQLLESGGGLVQPGGSLRLSCAASGFTFSDYAMYWVRQAPGKGLEWVSGIDINGSNTKYADSVKGRFTISRDNSKNTLYLQMNSLRAEDTAVYYCARKYNHNNHQNTTNFDYWGQGTLVTVSS
VL: EIVLTQSPGTLSLSPGERATLSCRASQNSSSYLSWYQQKPGQAPRLLIYYTSKLESGIPDRFSGSGSGTDFTLTISRLEPEDFAVYYCETVPSLLGVFGQGTKVEIK
notes: also called clone SP1; anti-PreS2 SP1 scFv
As to B1, in experiment [1], the Kd (commonly the equilibrium constant for the complex coming apart) was 0.0115 µM.

B2: S5 scFv (scFv, V domains shown)
VH: EVQLLESGGGLVQPGGSLRLSCAASGFTFSNYCIGWVRQAPGKGLEWVSPINSNNSNTEYADSVKGRFTISRDNSKNTLYLQMNSLRAEDTAVYYCARCSLPQISHFDYWGQGTLVTVSS
VL: EIVLTQSPGTLSLSPGERATLSCRASQNVSNYVSWYQQKPGQAPRLLIYDISTLQTGIPDRFSGSGSGTDFTLTISRLEPEDFAVYYCPKRVSTGGTFGQGTKVEIK
In the case of B2, binding in experiment [2] was put at a Kd of 0.011 µM.

For the origin of these results see publication PMC4193741 (PLoS ONE, 2014).
